According to PMC12341506:

Target: 3nv.2 SOSIP Env trimer (HIV-1 (clade C strain 426c))
Assay: cryo-EM structure; single-particle cryo-EM of unliganded 3nv.2 SOSIP Env, from a sample incubated with polyclonal Fabs and purified by SEC in TBS; 2D class averages and 3D map, C1 or C3 symmetry

## 3nv.2 SOSIP Env trimer
  stoichiometry N: 3
